± gives the standard deviation of the averaged measurements.
B1: library; a variant is named by its letters at N, in order (parent)
chain: GCUGUCACCGAGAAACUGUGAAGUAUAUCUUAAACCUGGGCACUUAAAAGAUAUAUGGAGUUAGUAGUGCAACCUGCUCGGUCUGAUGAGUCCNNNNNNGGACGAAACAGC

Experiments:
cyclic di-GMP [1] = variants of: B1; assay: FACS-Seq fitted mean relative fluorescence mCherry/BFP without ligand (log10 relative fluorescence); HEK293T; ligand: cyclic di-GMP (c-di-GMP-II aptamer); higher = higher reporter protein expression; settings: ligand present: no
Protocol: (§1)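 Hammerhead (sTRSV) ribozyme switch libraries with a ligand aptamer grafted on stem I and a randomized N4-6 loop II, cloned into the 3' UTR of mCherry and transiently transfected into HEK293T cells; RNA-Seq 72 h post transfection with ligand added 1 h before transfection; RNA read count / plasmid DNA read count normalized to the non-cleaving sTRSVctl (x100), log10; sequences with >100 DNA reads. FACS-Seq: lentiviral library sorted into 6 bins after 48 h ligand, log-normal fit mean of mCherry/BFP scaled to controls. Printed sequences are partial switch sequences.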

cyclic di-GMP [2] = variants of: B1; assay: normalized RNA/DNA level without ligand (relative to sTRSVctl = 100) (log10 (% of sTRSVctl)); HEK293T; ligand: cyclic di-GMP (c-di-GMP-II aptamer); higher = less ribozyme self-cleavage, higher mRNA level; settings: reporter: mCherry (pCS4076), ligand present: no
Protocol: as §1

cyclic di-GMP [3] = variants of: B1; assay: FACS-Seq fitted mean relative fluorescence mCherry/BFP with ligand (log10 relative fluorescence); HEK293T; ligand: cyclic di-GMP (c-di-GMP-II aptamer); ligand concentration (+) FACS-Seq: 1 mM; higher = higher reporter protein expression; settings: ligand present: yes
Protocol: as §1

cyclic di-GMP [4] = variants of: B1; assay: normalized RNA/DNA level with ligand (relative to sTRSVctl = 100) (log10 (% of sTRSVctl)); HEK293T; ligand: cyclic di-GMP (c-di-GMP-II aptamer); ligand concentration (+) RNA-Seq: 1 mM; higher = less ribozyme self-cleavage, higher mRNA level; settings: reporter: mCherry (pCS4076), ligand present: yes
Protocol: as §1

Variant | FACS-Seq fitted mean (log10) (cyclic di-GMP [1]) | normalized RNA/DNA level without ligand (log10) (cyclic di-GMP [2]) | FACS-Seq fitted mean (log10) (cyclic di-GMP [3]) | normalized RNA/DNA level with ligand (log10) (cyclic di-GMP [4])
UAAGUG | 0.0931 ± 0.039 | 1.61 ± 0.022 | 0.27 ± 0.01 | 1.78 ± 0.12
UAAGUU | 0.0182 ± 0.011 | 1.577 ± 0.0025 | 0.229 ± 0.08 | 1.77 ± 0.094
AAAUAA | -0.515 ± 0.032 | 1.45 ± 0.067 | -0.21 ± 0.07 | 1.68 ± 0.12
AAAUAU | -0.442 ± 0.052 | 1.6004 ± 0.00073 | -0.152 ± 0.097 | 1.78 ± 0.11
UAAGGA | -0.894 ± 0.046 | 1.54 ± 0.1 | -0.73 ± 0.051 | 1.7 ± 0.066
UAAUUU | -0.1701 ± 0.00076 | 1.688 ± 0.0068 | -0.0196 ± 0.026 | 1.87 ± 0.11
GACCUG | -0.44 ± 0.12 | 1.66 ± 0.022 | -0.213 ± 0.13 | 1.81 ± 0.11
GACCUA | -0.232 ± 0.041 | 1.621 ± 0.011 | 0.101 ± 0.016 | 1.77 ± 0.11
CACACA | -0.628 ± 0.032 | 1.45 ± 0.11 | -0.354 ± 0.056 | 1.64 ± 0.089
CACACU | -0.437 ± 0.0083 | 1.52 ± 0.12 | -0.0902 ± 0.05 | 1.7 ± 0.067
AACGCC | -0.235 ± 0.048 | 1.75 ± 0.022 | 0.192 ± 0.046 | 1.9 ± 0.15
AACGCU | -0.0259 ± 0.099 | 1.704 ± 0.013 | 0.296 ± 0.0034 | 1.86 ± 0.076
GAGACU | -0.22 ± 0.13 | 1.791 ± 0.013 | -0.00318 ± 0.073 | 1.87 ± 0.12
AAGAUA | -0.4038 ± 0.0036 | 1.42 ± 0.094 | -0.0468 ± 0.065 | 1.63 ± 0.063
AACCCC | -0.0752 ± 0.016 | 1.78 ± 0.046 | 0.263 ± 0.041 | 1.89 ± 0.14
AACCCU | 0.095 ± 0.16 | 1.69 ± 0.032 | 0.195 ± 0.28 | 1.84 ± 0.082
AAGACA | -0.415 ± 0.14 | 1.55 ± 0.044 | -0.0423 ± 0.083 | 1.74 ± 0.1
AAGACG | -0.185 ± 0.037 | 1.54 ± 0.084 | 0.133 ± 0.15 | 1.73 ± 0.097
GACGGA | -0.135 ± 0.078 | 1.47 ± 0.078 | 0.0761 ± 0.072 | 1.63 ± 0.076
AACGAG | -0.834 ± 0.078 | 1.53 ± 0.1 | -0.763 ± 0.099 | 1.71 ± 0.069
AACGAU | -0.207 ± 0.075 | 1.57 ± 0.052 | 0.0583 ± 0.17 | 1.76 ± 0.096
AACUGA | -0.155 ± 0.014 | 1.54 ± 0.047 | 0.0803 ± 0.017 | 1.68 ± 0.12
AACUGG | -0.198 ± 0.17 | 1.59 ± 0.049 | 0.149 ± 0.048 | 1.77 ± 0.17
GACUUU | -0.222 ± 0.11 | 1.723 ± 0.0052 | 0.162 ± 0.028 | 1.85 ± 0.083

Variant | FACS-Seq fitted mean (log10) (cyclic di-GMP [1]) | normalized RNA/DNA level without ligand (log10) (cyclic di-GMP [2]) | FACS-Seq fitted mean (log10) (cyclic di-GMP [3]) | normalized RNA/DNA level with ligand (log10) (cyclic di-GMP [4])
GACUUA | -0.438 ± 0.043 | 1.5846 ± 6e-05 | -0.219 ± 0.05 | 1.76 ± 0.1
GACUUG | -0.257 ± 0.031 | 1.63 ± 0.023 | -0.0923 ± 0.026 | 1.79 ± 0.12
CAGAUA | -0.713 ± 0.024 | 1.23 ± 0.053 | -0.483 ± 0.0048 | 1.43 ± 0.065
AAGAAU | -0.565 ± 0.046 | 1.54 ± 0.062 | -0.225 ± 0.05 | 1.74 ± 0.073
AAGAAC | -1.03 ± 0.025 | 1.55 ± 0.029 | -0.842 ± 0.066 | 1.73 ± 0.1
AAGAAA | -0.319 ± 0.062 | 1.38 ± 0.11 | -0.0342 ± 0.062 | 1.56 ± 0.035
GAAGGA | -0.325 ± 0.067 | 1.44 ± 0.093 | 0.0781 ± 0.006 | 1.59 ± 0.067
AACCUU | -0.0813 ± 0.093 | 1.66 ± 0.039 | 0.232 ± 0.016 | 1.82 ± 0.11
UAAUGC | -0.174 ± 0.058 | 1.69 ± 0.032 | -0.398 ± 0.12 | 1.84 ± 0.073
UAAUGA | -0.416 ± 0.019 | 1.597 ± 0.0061 | -0.112 ± 0.13 | 1.77 ± 0.086
GAGAAG | -0.283 ± 0.064 | 1.71 ± 0.038 | -0.00672 ± 0.064 | 1.79 ± 0.12
UACGCU | -0.169 ± 0.063 | 1.71 ± 0.032 | 0.108 ± 0.051 | 1.86 ± 0.098
CAGCCA | -0.196 ± 0.089 | 1.42 ± 0.05 | 0.0333 ± 0.08 | 1.67 ± 0.14
UACCAU | -0.473 ± 0.0049 | 1.663 ± 0.0085 | -0.0951 ± 0.092 | 1.8 ± 0.12
AACAGA | -0.897 ± 0.023 | 1.39 ± 0.14 | -0.683 ± 0.0078 | 1.59 ± 0.11
AACAGU | -1.23 ± 0.038 | 1.57 ± 0.076 | -1.08 ± 0.027 | 1.76 ± 0.063
AACAUC | -0.233 ± 0.056 | 1.593 ± 0.012 | 0.0469 ± 0.033 | 1.75 ± 0.13
AACAUG | 0.0898 ± 0.039 | 1.54 ± 0.053 | 0.286 ± 0.039 | 1.72 ± 0.081
AACGGA | -0.525 ± 0.046 | 1.32 ± 0.14 | -0.253 ± 0.067 | 1.53 ± 0.13
GACAAG | -0.339 ± 0.07 | 1.55 ± 0.029 | -0.0999 ± 0.034 | 1.72 ± 0.084
GACAAC | -0.156 ± 0.0096 | 1.63 ± 0.022 | 0.197 ± 0.1 | 1.82 ± 0.12
GACACU | -0.276 ± 0.038 | 1.705 ± 0.016 | -0.141 ± 0.073 | 1.83 ± 0.12
AAGAGG | -0.546 ± 0.022 | 1.53 ± 0.052 | -0.313 ± 0.016 | 1.68 ± 0.15
AAGAGA | -0.637 ± 0.058 | 1.33 ± 0.078 | -0.296 ± 0.066 | 1.54 ± 0.094

Variant | FACS-Seq fitted mean (log10) (cyclic di-GMP [1]) | normalized RNA/DNA level without ligand (log10) (cyclic di-GMP [2]) | FACS-Seq fitted mean (log10) (cyclic di-GMP [3]) | normalized RNA/DNA level with ligand (log10) (cyclic di-GMP [4])
CACGUG | -0.341 ± 0.18 | 1.67 ± 0.019 | -0.148 ± 0.21 | 1.84 ± 0.085
AAGCAA | -0.642 ± 0.0094 | 1.56 ± 0.039 | -0.454 ± 0.097 | 1.72 ± 0.062
AAGCAC | -0.391 ± 0.077 | 1.678 ± 0.0034 | -0.0705 ± 0.025 | 1.82 ± 0.11
CACAUA | -0.521 ± 0.032 | 1.26 ± 0.07 | -0.272 ± 0.044 | 1.52 ± 0.093
CACAUU | -0.323 ± 0.046 | 1.58 ± 0.025 | -0.0216 ± 0.035 | 1.7 ± 0.1
AACUAA | -0.473 ± 0.029 | 1.51 ± 0.035 | -0.168 ± 0.1 | 1.74 ± 0.11
GAAGUU | -0.118 ± 0.022 | 1.55 ± 0.072 | 0.245 ± 0.074 | 1.7 ± 0.091
GAGAGA | -0.796 ± 0.023 | 1.61 ± 0.037 | -0.733 ± 0.053 | 1.72 ± 0.086
CAGCAA | -0.468 ± 0.048 | 1.36 ± 0.094 | -0.2496 ± 0.00056 | 1.51 ± 0.061
UACUAU | -0.131 ± 0.0047 | 1.67 ± 0.051 | 0.0664 ± 0.13 | 1.83 ± 0.15
CACUAA | -0.523 ± 0.058 | 1.3 ± 0.16 | -0.243 ± 0.011 | 1.48 ± 0.13
CAAGUU | -0.164 ± 0.058 | 1.71 ± 0.027 | 0.078 ± 0.065 | 1.86 ± 0.12
CAAGUA | -0.495 ± 0.0052 | 1.46 ± 0.13 | -0.203 ± 0.02 | 1.63 ± 0.07
AACCAU | -0.0934 ± 0.098 | 1.6 ± 0.025 | 0.0926 ± 0.016 | 1.76 ± 0.15
AACCAA | -0.517 ± 0.035 | 1.43 ± 0.082 | -0.235 ± 0.052 | 1.63 ± 0.1
GAGAUU | -0.388 ± 0.22 | 1.71 ± 0.035 | -0.0338 ± 0.038 | 1.82 ± 0.1
UACGGA | -1.08 ± 0.21 | 1.61 ± 0.053 | -0.994 ± 0.18 | 1.76 ± 0.1
CACGCA | -0.406 ± 0.0063 | 1.61 ± 0.04 | -0.00856 ± 0.11 | 1.79 ± 0.11
AAAGGG | -0.506 ± 0.051 | 1.37 ± 0.078 | -0.2804 ± 0.00041 | 1.59 ± 0.077
AAAGGU | -0.701 ± 0.017 | 1.54 ± 0.054 | -0.44 ± 0.065 | 1.71 ± 0.1
AAAGGA | -0.691 ± 0.009 | 1.31 ± 0.13 | -0.5317 ± 0.0025 | 1.47 ± 0.11
CAAUGU | 0.349 ± 0.071 | 1.75 ± 0.019 | 0.4491 ± 0.001 | 1.87 ± 0.11
CACUGU | -0.215 ± 0.023 | 1.709 ± 0.017 | 0.0975 ± 0.08 | 1.83 ± 0.11
CAAGAA | -0.432 ± 0.1 | 1.23 ± 0.12 | -0.059 ± 0.057 | 1.48 ± 0.13
